Reference: publication PMC4372403, “Glycosylation of Phenolic Compounds by the Site-Mutated β-Galactosidase from Lactobacillus bulgaricus L3” (PLoS ONE, 2015)

B1: BgaL3 (β-galactosidase from Lactobacillus bulgaricus L3) (Lactobacillus delbrueckii subsp. bulgaricus) (protein)
chain: MSNKLVKEKRVDQADLAWLTDPEVYEVNTIPPHSDHESFQSQEELEEGKSSLVQSLDGDWLIDYAENGQGPVNFYAEDFDDSNFKSVKVPGNLELQGFGQPQYVNVQYPWDGSEEIFPPQIPSKNPLASYVRYFDLDEAFWDKEVSLKFDGAATAIYVWLNGHFVGYGEDSFTPSEFMVTKFLKKENNRLAVALYKYSSASWLEDQDFWRMSGLFRSVTLQAKPRLHLEDLKLTASLTDNYQKGKLEVEANIAYRLPNASFKLEVRDSEGDLVAEKLGPIRSEQLEFTLADLPVAAWSAEKPNLYQVRLYLYQAGSLLEVSRQEVGFRNFELKDGIMYLNGQRIVFKGANRHEFDSKLGRAITEEDMIWDIKTMKRSNINAVRCSHYPNQSLFYRLCDKYGLYVIDEANLESHGTWEKVGGHEDPSFNVPGDDQHWLGASLSRVKNMMARDKNHASILIWSLGNESYAGTVFAQMADYVRKADPTRVQHYEGVTHNRKFDDATQIESRMYVPAKVIEEYLTNKPAKPFISVEYAHAMGNSVGDLAAYTALEKYPHYQGGFIWDWIDQGLEKDGHLLYGGDFDDRPTDYEFCGNGLVFADRTESPKLANVKALYANLKLEVKDGQLFLKNDNLFTNSSSYYFLTSLLVDGKLTYQSRPLTFGLEPGESGTFALPWPEVADEKGEVVYRVTAHLKEDLPWADEGFTVAEAEEVAQKLPEFKPEGRPDLVDSDYNLGLKGNNFQILFSKVKGWPVSLKYAGREYLKRLPEFTFWRALTDNDRGAGYGYDLARWENAGKYARLKDISCEVKEDSVLVKTAFTLPVALKGDLTVTYEVDGRGKIAVTADFPGAEEAGLLPAFGLNLALPKELTDYRYYGLGPNESYPDRLEGNYLGIYQGAVKKNFSPYLRPQETGNRSKVRWYQLFDEKGGLEFTANGADLNLSALPYSAAQIEAADHAFELTNNYTWVRALSAQMGVGGDDSWGQKVHPEFCLDAQKARQLRLVIQPLLLK
B2: BgaL3 (β-galactosidase from Lactobacillus bulgaricus L3) (Lactobacillus delbrueckii subsp. bulgaricus; W980F) (protein)
chain: MSNKLVKEKRVDQADLAWLTDPEVYEVNTIPPHSDHESFQSQEELEEGKSSLVQSLDGDWLIDYAENGQGPVNFYAEDFDDSNFKSVKVPGNLELQGFGQPQYVNVQYPWDGSEEIFPPQIPSKNPLASYVRYFDLDEAFWDKEVSLKFDGAATAIYVWLNGHFVGYGEDSFTPSEFMVTKFLKKENNRLAVALYKYSSASWLEDQDFWRMSGLFRSVTLQAKPRLHLEDLKLTASLTDNYQKGKLEVEANIAYRLPNASFKLEVRDSEGDLVAEKLGPIRSEQLEFTLADLPVAAWSAEKPNLYQVRLYLYQAGSLLEVSRQEVGFRNFELKDGIMYLNGQRIVFKGANRHEFDSKLGRAITEEDMIWDIKTMKRSNINAVRCSHYPNQSLFYRLCDKYGLYVIDEANLESHGTWEKVGGHEDPSFNVPGDDQHWLGASLSRVKNMMARDKNHASILIWSLGNESYAGTVFAQMADYVRKADPTRVQHYEGVTHNRKFDDATQIESRMYVPAKVIEEYLTNKPAKPFISVEYAHAMGNSVGDLAAYTALEKYPHYQGGFIWDWIDQGLEKDGHLLYGGDFDDRPTDYEFCGNGLVFADRTESPKLANVKALYANLKLEVKDGQLFLKNDNLFTNSSSYYFLTSLLVDGKLTYQSRPLTFGLEPGESGTFALPWPEVADEKGEVVYRVTAHLKEDLPWADEGFTVAEAEEVAQKLPEFKPEGRPDLVDSDYNLGLKGNNFQILFSKVKGWPVSLKYAGREYLKRLPEFTFWRALTDNDRGAGYGYDLARWENAGKYARLKDISCEVKEDSVLVKTAFTLPVALKGDLTVTYEVDGRGKIAVTADFPGAEEAGLLPAFGLNLALPKELTDYRYYGLGPNESYPDRLEGNYLGIYQGAVKKNFSPYLRPQETGNRSKVRWYQLFDEKGGLEFTANGADLNLSALPYSAAQIEAADHAFELTNNYTWVRALSAQMGVGGDDSFGQKVHPEFCLDAQKARQLRLVIQPLLLK

Substrate: O=[N+]([O-])c1ccccc1O[C@@H]1O[C@H](CO)[C@H](O)[C@H](O)[C@H]1O
Test: purified protein
Assay type: biochemical, Lactobacillus delbrueckii
Conditions: 37°C, 10 min, oNPGal 0.5 to 50 mM, hydrolysis

Protein | Km [mM] | Vmax [µmol/min/mg] | kcat [s⁻¹] | kcat/Km [M⁻¹ s⁻¹]
B1 | 1.38 | 6530 | 12500 | 9.06e+06
B2 | 6.40 | 640 | 1240 | 194000
